Here are results for ten molecules from patent US20240201167A1 (ALBERT EINSTEIN COLLEGE OF MEDICINE, published 2024).

First the molecules themselves.
T1: p75NTR-mIgG2a (human, UniProt P08138 29-250)
T1 construct: Full-length ectodomain; also called p75-mIgG2A; recombinant p75 mIgG2a; not shown: C-terminal mIgG2a-His10 Fc domain
T1 sequence: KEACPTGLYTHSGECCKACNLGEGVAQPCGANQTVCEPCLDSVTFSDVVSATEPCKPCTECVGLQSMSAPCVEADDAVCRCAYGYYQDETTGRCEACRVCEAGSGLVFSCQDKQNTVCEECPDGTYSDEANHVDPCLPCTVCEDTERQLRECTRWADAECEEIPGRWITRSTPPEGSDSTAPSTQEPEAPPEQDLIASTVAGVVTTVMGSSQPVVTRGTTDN

T2: human p75 neurotrophin receptor, full length, expressed on HEK 293 cells (Homo sapiens, UniProt P08138 29-427)
T2 construct: Full-length human p75 with a cytosolic fluorescent tag (GFP); also called p75NTR; NGFR
T2 sequence: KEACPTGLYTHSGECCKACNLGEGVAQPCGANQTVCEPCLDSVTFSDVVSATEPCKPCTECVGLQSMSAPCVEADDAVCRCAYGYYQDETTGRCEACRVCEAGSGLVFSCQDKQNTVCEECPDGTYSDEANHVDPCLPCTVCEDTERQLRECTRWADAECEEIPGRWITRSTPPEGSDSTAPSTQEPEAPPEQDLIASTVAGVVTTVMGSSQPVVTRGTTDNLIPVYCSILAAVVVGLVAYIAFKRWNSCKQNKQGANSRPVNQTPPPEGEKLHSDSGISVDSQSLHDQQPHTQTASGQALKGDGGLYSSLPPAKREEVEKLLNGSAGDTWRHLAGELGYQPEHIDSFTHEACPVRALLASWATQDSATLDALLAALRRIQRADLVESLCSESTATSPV

T3: human B7-1 (CD80), full length, expressed on HEK 293 cells (Homo sapiens, UniProt P33681 35-280)
T3 construct: also called hB7-1; B7-1-mCherry
T3 sequence: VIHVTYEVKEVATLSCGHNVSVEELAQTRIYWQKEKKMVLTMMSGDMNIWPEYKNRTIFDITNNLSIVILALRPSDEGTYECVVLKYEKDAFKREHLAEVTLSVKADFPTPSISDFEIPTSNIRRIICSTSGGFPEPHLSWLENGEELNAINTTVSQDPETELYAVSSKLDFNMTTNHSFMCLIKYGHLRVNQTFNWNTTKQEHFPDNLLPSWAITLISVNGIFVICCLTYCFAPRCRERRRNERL

T4: human B7-1 K139D on cells (Homo sapiens, UniProt P33681 35-280)
T4 construct: mCherry-tagged point mutant; also called LYS139ASP; LYS139 ASP
T4 chain: T3 sequence with K105D

T5: human B7-1 K120D on cells (Homo sapiens, UniProt P33681 35-280)
T5 construct: mCherry-tagged point mutant; also called LYS120 ASP
T5 chain: T3 sequence with K86D

T6: human B7-1 R63D on cells (Homo sapiens, UniProt P33681 35-280)
T6 construct: mCherry-tagged point mutant; also called ARG63 ASP
T6 chain: T3 sequence with R29D

T7: human B7-1 N82E on cells (Homo sapiens, UniProt P33681 35-280)
T7 construct: C-terminally fused to mCherry; also called ASN82 GLU
T7 chain: T3 sequence with N48E

T8: human B7-1 K127D on cells (Homo sapiens, UniProt P33681 35-280)
T8 construct: mCherry-tagged point mutant; also called LYS127 ASP
T8 chain: T3 sequence with K93D

B1: chimeric human-mouse B7-1 protein expressed on HEK 293 cells (ligand)
chain: VIHVTKEVKEVATLSCGHNVSVEELAQTRIYWQKEKKMVLTMMSGDMNIWPEYKNRTIFDITNNLSIVILALRPSDEGTYECVVLKYEKDAFKREHLAEVTLSVKADFSTPNITESGNPSADTKRITCFASGGFPKPRFSWLENGRELPGINTTISQDPESELYTISSQLDFNTTRNHTIKCLIKYGDAHVSEDFTWEKPPEDPPDSKNTLVLFGAGFGAVITVVVIVVIIKCFCKHRSCFRRNEASRETNNSLTFGPEEALAEQTVFL
notes: also called human-mouse chimera B7-1-GFP; h:mB7-1
B2: B7-2 expressed on cells (ligand, human, UniProt P42081 24-329, looked up)
chain: APLKIQAYFNETADLPCQFANSQNQSLSELVVFWQDQENLVLNEVYLGKEKFDSVHSKYMGRTSFDSDSWTLRLHNLQIKDKGLYQCIIHHKKPTGMIRIHQMNSELSVLANFSQPEIVPISNITENVYINLTCSSIHGYPEPKKMSVLLRTKNSTIEYDGVMQKSQDNVTELYDVSISLSVSFPDVTSNMTIFCILETDKTRLLSSPFSIELEDPQPPPDHIPWITAVLPTVIICVMVFCLILWKWKKKKRPRNSYKCGTNTMEREESEQTKKREKIHIPERSDEAQRVFKSSKTSSCDKSDTCF
notes: whole, on cells
B3: ICOSL expressed on cells (ligand, human, UniProt O75144 19-302, looked up)
chain: DTQEKEVRAMVGSDVELSCACPEGSRFDLNDVYVYWQTSESKTVVTYHIPQNSSLENVDSRYRNRALMSPAGMLRGDFSLRLFNVTPQDEQKFHCLVLSQSLGFQEVLSVEVTLHVAANFSVPVVSAPHSPSQDELTFTCTSINGYPRPNVYWINKTDNSLLDQALQNDTVFLNMRGLYDVVSVLRIARTPSVNIGCCIENVLLQQNLTVGSQTGNDIGERDKITENPVSTGEKNAATWSILAVLCLLVVVAVAIGWVCRDRCLQHSYAGAWAVSPETELTGHV
notes: whole, on cells
B4: human p75NTR P150K on cells (receptor)
chain: T2 sequence with P122K
notes: Fluorescent-tagged point mutant
B5: human p75NTR P150H on cells (receptor)
chain: T2 sequence with P122H
notes: as for B4
B6: human p75NTR F136K on cells (receptor)
chain: T2 sequence with F108K
notes: as for B4
B7: human p75NTR L165H on cells (receptor)
chain: T2 sequence with L137H
notes: Fluorescent-tagged point mutant; also called LEU165H*
B8: human p75NTR L165K on cells (receptor)
chain: T2 sequence with L137K
notes: Fluorescent-tagged point mutant; also called LEU165K*
B9: human p75NTR F136H on cells (receptor)
chain: T2 sequence with F108H
notes: as for B4

Positions count from the first letter of the chain named. Numbers in names are those of the source.

One experiment deals with human B7-1 (CD80), full length, expressed on HEK 293 cells (Homo sapiens) (UniProt P33681). Put plainly: cell-cell binding, flow cytometry; percent of the wild-type pair.
In turn, “human p75NTR mutant printed ARG166H on cells (from UniProt P08138 29-427) (receptor)” showed a percent binding of 66%.

Another experiment deals with T1, p75NTR-mIgG2a. Put plainly: Fc fusion on cells expressing chimera B7-1-GFP, flow cytometry. The procedure: (§1) The arrow identifies the swapped exons. […] Binding was assessed using an anti mIgG2a-647 labeled antibody and flow cytometry.
With B1, the binding result was “binds”.

The target in a further experiment is T9, mouse CTLA-4-mIgG2a (mouse, UniProt P09793 36-161).
T9 construct: not shown: mIgG2a Fc
T9 sequence (P09793 36-161): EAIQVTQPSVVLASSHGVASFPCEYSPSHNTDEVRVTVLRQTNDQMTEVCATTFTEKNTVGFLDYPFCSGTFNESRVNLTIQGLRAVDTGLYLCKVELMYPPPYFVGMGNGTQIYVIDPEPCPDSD
The description is as above. How it is done:
as §1
As to B1, the binding result is given as “binds”.

The target in another experiment is T2, human p75 neurotrophin receptor, full …. Put plainly: cell-cell screen, flow cytometry. The procedure:
As illustrated, cells were transfected with expression cassettes expressing labeled receptors or labeled ligands, receptor-expressing cells were mixed with ligand-expressing cells and cell-to-cell binding was monitored by detecting the labels associated with the receptor and the ligand. […] Binding was detected using an anti-mIgG2A ab and flow cytometry. The binding curves were fit and the Bmax, EC50, and hill coefficient were calculated using the equation Y=Bmax*Xh/(Kdh+Xh).
For orientation: Flow cytometry measures light scatter and fluorescence of single cells or particles in a stream.
With B2, the binding result is recorded as “no binding”.

As for B3, the binding result was “no binding”.

The target of the next experiment is T3, human B7-1 (CD80), full length, …. Put plainly: cell-cell binding, flow cytometry; percent of the wild-type pair.
In turn, B4 registered a percent binding of 69%.

As to B5, the percent binding was determined as 38%.

Molecule B6 returned a percent binding of 81%.

Molecule B7 had a percent binding of 64%.

As for B8, the percent binding was found to be 83%.

As to B9, the percent binding came out at 90%.

For a further experiment, the target named is T4, human B7-1 K139D on cells. The experiment is described as above.
“human p75NTR mutant printed ARG166H on cells (from UniProt P08138 29-427) (receptor)”: the percent binding is 26%.

As for B4, the percent binding worked out at 11%.

With B5, the percent binding was determined as 14%.

Consider B6, for which the percent binding came out at 18%.

Consider B7, for which the percent binding is 25%.

Molecule B8 gave a percent binding of 19%.

The molecule B9 showed a percent binding of 13%.

A further experiment addresses T5, human B7-1 K120D on cells. Described as above.
For “human p75NTR mutant printed ARG166H on cells (from UniProt P08138 29-427) (receptor)”, the percent binding stood at 12%.

In turn, B4 displayed a percent binding of 17%.

In turn, B5 gave a percent binding of 16%.

Molecule B6 gave a percent binding of 16%.

Molecule B7 showed a percent binding of 19%.

B8 registered a percent binding of 20%.

B9 showed a percent binding of 15%.

A further experiment deals with T6, human B7-1 R63D on cells. The experiment is described as above.
In turn, “human p75NTR mutant printed ARG166H on cells (from UniProt P08138 29-427) (receptor)” registered a percent binding of 8%.

In the case of B4, the percent binding was 14%.

As to B5, the percent binding is 13%.

The molecule B6 had a percent binding of 29%.

In the case of B7, the percent binding came to 26%.

With B8, the percent binding was 18%.

The molecule B9 registered a percent binding of 25%.

Another experiment concerns the target T7, human B7-1 N82E on cells. The experiment is described as above.
The molecule “human p75NTR mutant printed ARG166H on cells (from UniProt P08138 29-427) (receptor)” returned a percent binding of 25%.

B4 came in with a percent binding of 13%.

B5 came in with a percent binding of 10%.

Take B6: the percent binding amounted to 77%.

On to B7, for which the percent binding came out at 15%.

Take B8: the percent binding turned out to be 11%.

For B9, the percent binding worked out at 66%.

For a further experiment, the target named is T8, human B7-1 K127D on cells. The description is as above.
The molecule “human p75NTR mutant printed ARG166H on cells (from UniProt P08138 29-427) (receptor)” showed a percent binding of 26%.

In the case of B4, the percent binding is 15%.

Molecule B5 gave a percent binding of 11%.

Consider B6, for which the percent binding stood at 23%.

The molecule B7 registered a percent binding of 25%.

The molecule B8 yielded a percent binding of 19%.

In the case of B9, the percent binding is 16%.
